± gives the uncertainty stated by the source.
Assay: abundance fitness (aPCA) (normalised: wild type 0, dead -1); higher = more abundant; growth selection in yeast, the domain comes from the species named
Conditions: Saccharomyces cerevisiae (strain ATCC 204508 / S288c)

| Substance | abundance fitness |
| --- | --- |
| E3 ubiquitin-protein ligase RSP5 T356Y, P39940 | -0.381 ± 0.12 |
| E3 ubiquitin-protein ligase RSP5 T357A, P39940 | -0.304 ± 0.048 |
| E3 ubiquitin-protein ligase RSP5 T357C, P39940 | -0.142 ± 0.065 |
| E3 ubiquitin-protein ligase RSP5 T357D, P39940 | -0.711 ± 0.06 |
| E3 ubiquitin-protein ligase RSP5 T357E, P39940 | -0.477 ± 0.058 |
| E3 ubiquitin-protein ligase RSP5 T357F, P39940 | -1.11 ± 0.28 |
| E3 ubiquitin-protein ligase RSP5 T357G, P39940 | -0.81 ± 0.047 |
| E3 ubiquitin-protein ligase RSP5 T357H, P39940 | -0.578 ± 0.16 |
| E3 ubiquitin-protein ligase RSP5 T357I, P39940 | -0.735 ± 0.17 |
| E3 ubiquitin-protein ligase RSP5 T357K, P39940 | -0.393 ± 0.069 |
| E3 ubiquitin-protein ligase RSP5 T357L, P39940 | -0.488 ± 0.08 |
| E3 ubiquitin-protein ligase RSP5 T357M, P39940 | -0.33 ± 0.094 |
| E3 ubiquitin-protein ligase RSP5 T357P, P39940 | -0.77 ± 0.073 |
| E3 ubiquitin-protein ligase RSP5 T357Q, P39940 | -0.441 ± 0.07 |
| E3 ubiquitin-protein ligase RSP5 T357S, P39940 | -0.1 ± 0.062 |
| E3 ubiquitin-protein ligase RSP5 T357V, P39940 | -0.247 ± 0.059 |
| E3 ubiquitin-protein ligase RSP5 T357W, P39940 | -0.695 ± 0.061 |
| E3 ubiquitin-protein ligase RSP5 T357Y, P39940 | -0.955 ± 0.31 |
| E3 ubiquitin-protein ligase RSP5 T358D, P39940 | -0.659 ± 0.091 |
| E3 ubiquitin-protein ligase RSP5 T358E, P39940 | -0.761 ± 0.051 |
| E3 ubiquitin-protein ligase RSP5 T358G, P39940 | -0.535 ± 0.044 |
| E3 ubiquitin-protein ligase RSP5 T358H, P39940 | -0.411 ± 0.076 |
| E3 ubiquitin-protein ligase RSP5 T358I, P39940 | -1.07 ± 0.38 |
| E3 ubiquitin-protein ligase RSP5 T358K, P39940 | -0.658 ± 0.12 |
| E3 ubiquitin-protein ligase RSP5 T358L, P39940 | -0.886 ± 0.063 |
| E3 ubiquitin-protein ligase RSP5 T358N, P39940 | -0.767 ± 0.12 |

| Substance | abundance fitness |
| --- | --- |
| E3 ubiquitin-protein ligase RSP5 T358P, P39940 | -0.955 ± 0.067 |
| E3 ubiquitin-protein ligase RSP5 T358Q, P39940 | -0.326 ± 0.057 |
| E3 ubiquitin-protein ligase RSP5 T358R, P39940 | -0.781 ± 0.046 |
| E3 ubiquitin-protein ligase RSP5 T358S, P39940 | -0.028 ± 0.058 |
| E3 ubiquitin-protein ligase RSP5 T358V, P39940 | -0.729 ± 0.071 |
| E3 ubiquitin-protein ligase RSP5 T358W, P39940 | -0.626 ± 0.064 |
| E3 ubiquitin-protein ligase RSP5 T358Y, P39940 | -0.633 ± 0.12 |
| E3 ubiquitin-protein ligase RSP5 V350A, P39940 | -0.275 ± 0.043 |
| E3 ubiquitin-protein ligase RSP5 V350C, P39940 | -0.097 ± 0.066 |
| E3 ubiquitin-protein ligase RSP5 V350D, P39940 | -0.604 ± 0.11 |
| E3 ubiquitin-protein ligase RSP5 V350E, P39940 | -0.346 ± 0.057 |
| E3 ubiquitin-protein ligase RSP5 V350F, P39940 | 0.044 ± 0.13 |
| E3 ubiquitin-protein ligase RSP5 V350G, P39940 | -0.891 ± 0.046 |
| E3 ubiquitin-protein ligase RSP5 V350K, P39940 | -0.537 ± 0.065 |
| E3 ubiquitin-protein ligase RSP5 V350L, P39940 | 0.028 ± 0.048 |
| E3 ubiquitin-protein ligase RSP5 V350M, P39940 | 0.109 ± 0.085 |
| E3 ubiquitin-protein ligase RSP5 V350N, P39940 | -0.49 ± 0.095 |
| E3 ubiquitin-protein ligase RSP5 V350Q, P39940 | -0.295 ± 0.066 |
| E3 ubiquitin-protein ligase RSP5 V350R, P39940 | -0.546 ± 0.042 |
| E3 ubiquitin-protein ligase RSP5 V350S, P39940 | -0.502 ± 0.078 |
| E3 ubiquitin-protein ligase RSP5 V350W, P39940 | -0.359 ± 0.057 |
| E3 ubiquitin-protein ligase RSP5 V350Y, P39940 | -0.136 ± 0.14 |
| E3 ubiquitin-protein ligase RSP5 V360A, P39940 | -0.161 ± 0.046 |
| E3 ubiquitin-protein ligase RSP5 V360C, P39940 | -0.018 ± 0.062 |
| E3 ubiquitin-protein ligase RSP5 V360D, P39940 | -0.098 ± 0.056 |
| E3 ubiquitin-protein ligase RSP5 V360E, P39940 | -0.154 ± 0.053 |

| Substance | abundance fitness |
| --- | --- |
| E3 ubiquitin-protein ligase RSP5 V360F, P39940 | 0.058 ± 0.11 |
| E3 ubiquitin-protein ligase RSP5 V360H, P39940 | 0.043 ± 0.059 |
| E3 ubiquitin-protein ligase RSP5 V360I, P39940 | 0.186 ± 0.1 |
| E3 ubiquitin-protein ligase RSP5 V360L, P39940 | -0.03 ± 0.044 |
| E3 ubiquitin-protein ligase RSP5 V360M, P39940 | 0.022 ± 0.062 |
| E3 ubiquitin-protein ligase RSP5 V360N, P39940 | 0.014 ± 0.093 |
| E3 ubiquitin-protein ligase RSP5 V360P, P39940 | -0.871 ± 0.061 |
| E3 ubiquitin-protein ligase RSP5 V360Q, P39940 | -0.184 ± 0.15 |
| E3 ubiquitin-protein ligase RSP5 V360R, P39940 | -0.207 ± 0.041 |
| E3 ubiquitin-protein ligase RSP5 V360T, P39940 | -0.095 ± 0.064 |
| E3 ubiquitin-protein ligase RSP5 V360W, P39940 | -0.06 ± 0.069 |
| E3 ubiquitin-protein ligase RSP5 V360Y, P39940 | 0.194 ± 0.084 |
| E3 ubiquitin-protein ligase RSP5 W337A, P39940 | -0.649 ± 0.06 |
| E3 ubiquitin-protein ligase RSP5 W337C, P39940 | -0.4 ± 0.087 |
| E3 ubiquitin-protein ligase RSP5 W337D, P39940 | -0.504 ± 0.074 |
| E3 ubiquitin-protein ligase RSP5 W337E, P39940 | -0.525 ± 0.066 |
| E3 ubiquitin-protein ligase RSP5 W337F, P39940 | -0.045 ± 0.093 |
| E3 ubiquitin-protein ligase RSP5 W337G, P39940 | -0.503 ± 0.051 |
| E3 ubiquitin-protein ligase RSP5 W337H, P39940 | -0.539 ± 0.076 |
| E3 ubiquitin-protein ligase RSP5 W337I, P39940 | -0.23 ± 0.085 |
| E3 ubiquitin-protein ligase RSP5 W337K, P39940 | -0.713 ± 0.073 |
| E3 ubiquitin-protein ligase RSP5 W337L, P39940 | -0.53 ± 0.06 |
| E3 ubiquitin-protein ligase RSP5 W337N, P39940 | -0.641 ± 0.14 |
| E3 ubiquitin-protein ligase RSP5 W337P, P39940 | -0.883 ± 0.061 |
| E3 ubiquitin-protein ligase RSP5 W337Q, P39940 | -0.637 ± 0.11 |
| E3 ubiquitin-protein ligase RSP5 W337R, P39940 | -0.771 ± 0.052 |

| Substance | abundance fitness |
| --- | --- |
| E3 ubiquitin-protein ligase RSP5 W337S, P39940 | -0.622 ± 0.052 |
| E3 ubiquitin-protein ligase RSP5 W337Y, P39940 | -0.366 ± 0.1 |
| E3 ubiquitin-protein ligase RSP5 W359C, P39940 | -0.336 ± 0.085 |
| E3 ubiquitin-protein ligase RSP5 W359D, P39940 | -0.225 ± 0.059 |
| E3 ubiquitin-protein ligase RSP5 W359E, P39940 | -0.271 ± 0.071 |
| E3 ubiquitin-protein ligase RSP5 W359G, P39940 | -0.441 ± 0.045 |
| E3 ubiquitin-protein ligase RSP5 W359I, P39940 | -0.258 ± 0.1 |
| E3 ubiquitin-protein ligase RSP5 W359K, P39940 | -0.446 ± 0.11 |
| E3 ubiquitin-protein ligase RSP5 W359L, P39940 | -0.203 ± 0.066 |
| E3 ubiquitin-protein ligase RSP5 W359N, P39940 | -0.198 ± 0.091 |
| E3 ubiquitin-protein ligase RSP5 W359P, P39940 | -0.447 ± 0.059 |
| E3 ubiquitin-protein ligase RSP5 W359Q, P39940 | -0.278 ± 0.08 |
| E3 ubiquitin-protein ligase RSP5 W359R, P39940 | -0.265 ± 0.067 |
| E3 ubiquitin-protein ligase RSP5 W359S, P39940 | -0.249 ± 0.049 |
| E3 ubiquitin-protein ligase RSP5 W359T, P39940 | -0.342 ± 0.055 |
| E3 ubiquitin-protein ligase RSP5 W359V, P39940 | -0.416 ± 0.045 |
| E3 ubiquitin-protein ligase RSP5 W359Y, P39940 | 0.171 ± 0.08 |
| E3 ubiquitin-protein ligase RSP5 Y348A, P39940 | -0.936 ± 0.073 |
| E3 ubiquitin-protein ligase RSP5 Y348C, P39940 | -0.574 ± 0.09 |
| E3 ubiquitin-protein ligase RSP5 Y348D, P39940 | -0.879 ± 0.091 |
| E3 ubiquitin-protein ligase RSP5 Y348E, P39940 | -0.664 ± 0.062 |
| E3 ubiquitin-protein ligase RSP5 Y348F, P39940 | -0.146 ± 0.09 |
| E3 ubiquitin-protein ligase RSP5 Y348G, P39940 | -0.796 ± 0.043 |
| E3 ubiquitin-protein ligase RSP5 Y348H, P39940 | -0.699 ± 0.16 |
| E3 ubiquitin-protein ligase RSP5 Y348K, P39940 | -0.666 ± 0.072 |

— the Human Domainome abundance scans (Beltran et al. 2025)
